Tested on: Escherichia coli TOP10
Assay: shrunken log2 fold change of peptide-encoding DNA abundance (4.5 h post-induction vs induction); higher = less antimicrobial activity (less host growth inhibition)
Conditions: time post-induction: 4.5 h; library: site-saturation at positions 5, 18, 19, 20
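Further: peptides expressed intracellularly from a pBAD plasmid library in pooled LB shake-flask culture, induced with 0.3% L-arabinose, DNA abundance read by NGS, three biological replicates, DESeq2 with apeglm shrinkage.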

Sequence	shrunken log2 fold change
RRIRCRPPRLPRPRPRPISYPRP	-0.485
RRIRQRPPRLPRPRPRPAGTPRP	0.134
RRIRMRPPRLPRPRPRPESWPRP	1.52
RRIRIRPPRLPRPRPRPNWDPRP	-0.0401
RRIRQRPPRLPRPRPRPHERPRP	0.158
RRIRVRPPRLPRPRPRPRHRPRP	0.0675
RRIRSRPPRLPRPRPRPINRPRP	-0.225
RRIRDRPPRLPRPRPRPDYCPRP	-0.045
RRIRLRPPRLPRPRPRPPKQPRP	0.0446
RRIRDRPPRLPRPRPRPLIKPRP	0.153
RRIRPRPPRLPRPRPRPDREPRP	0.0682
RRIRLRPPRLPRPRPRPYVNPRP	-0.23
RRIRCRPPRLPRPRPRPYTCPRP	-0.794
RRIRVRPPRLPRPRPRPDWAPRP	0.133
RRIRGRPPRLPRPRPRPYNLPRP	-0.487
RRIRSRPPRLPRPRPRPWAKPRP	-0.00197
RRIRRRPPRLPRPRPRPIYIPRP	-0.184
RRIRERPPRLPRPRPRPADQPRP	0.0155
RRIRYRPPRLPRPRPRPREYPRP	0.0168
RRIRYRPPRLPRPRPRPDDWPRP	-0.437
RRIRERPPRLPRPRPRPAPMPRP	0.116
RRIRWRPPRLPRPRPRPNSKPRP	-0.218
RRIRMRPPRLPRPRPRPLIMPRP	-0.0525
RRIRDRPPRLPRPRPRPNAIPRP	0.13
RRIRRRPPRLPRPRPRPYHEPRP	0.016

Sequence	shrunken log2 fold change
RRIRGRPPRLPRPRPRPENKPRP	0.32
RRIRSRPPRLPRPRPRPTATPRP	0.703
RRIRGRPPRLPRPRPRPEKPPRP	0.316
RRIRERPPRLPRPRPRPDLIPRP	-0.0979
RRIRPRPPRLPRPRPRPNPSPRP	-0.138
RRIRERPPRLPRPRPRPPVKPRP	0.0254
RRIRMRPPRLPRPRPRPYSYPRP	0.0871
RRIRWRPPRLPRPRPRPVTLPRP	-0.147
RRIRFRPPRLPRPRPRPPKHPRP	0.292
RRIRRRPPRLPRPRPRPHATPRP	0.492
RRIRKRPPRLPRPRPRPFQRPRP	-0.0265
RRIRGRPPRLPRPRPRPLIWPRP	0.602
RRIRGRPPRLPRPRPRPKEGPRP	1.62
RRIRMRPPRLPRPRPRPMTAPRP	0.198
RRIRWRPPRLPRPRPRPKSFPRP	0.0955
RRIRMRPPRLPRPRPRPFCNPRP	-0.148
RRIRKRPPRLPRPRPRPYYRPRP	-0.827
RRIRPRPPRLPRPRPRPCYEPRP	-0.195
RRIRIRPPRLPRPRPRPFVQPRP	-0.634
RRIRGRPPRLPRPRPRPVLDPRP	0.419
RRIRKRPPRLPRPRPRPKCIPRP	0.317
RRIRPRPPRLPRPRPRPQWEPRP	0.155
RRIRVRPPRLPRPRPRPIWNPRP	-0.624
RRIRTRPPRLPRPRPRPTARPRP	0.0618
RRIRNRPPRLPRPRPRPKFAPRP	-0.0695

Sequence	shrunken log2 fold change
RRIRKRPPRLPRPRPRPICLPRP	0.141
RRIRMRPPRLPRPRPRPQFWPRP	0.245
RRIRSRPPRLPRPRPRPYIHPRP	-0.737
RRIRNRPPRLPRPRPRPQLSPRP	-0.2
RRIRTRPPRLPRPRPRPRFTPRP	0.0679
RRIRFRPPRLPRPRPRPEMEPRP	0.252
RRIRKRPPRLPRPRPRPHSNPRP	0.095
RRIRDRPPRLPRPRPRPQGCPRP	0.0122
RRIRRRPPRLPRPRPRPKWCPRP	0.431
RRIRDRPPRLPRPRPRPKHNPRP	-0.0986
RRIRPRPPRLPRPRPRPMPRPRP	0.238
RRIRPRPPRLPRPRPRPRDFPRP	0.317
RRIRSRPPRLPRPRPRPSRHPRP	0.0757
RRIRSRPPRLPRPRPRPEVHPRP	0.0346
RRIRYRPPRLPRPRPRPMWYPRP	-0.884
RRIRSRPPRLPRPRPRPMWTPRP	-0.0682
RRIRERPPRLPRPRPRPGADPRP	0.146
RRIRMRPPRLPRPRPRPKAFPRP	0.0392
RRIRPRPPRLPRPRPRPKHWPRP	0.273
RRIRNRPPRLPRPRPRPYIMPRP	-0.741
RRIRPRPPRLPRPRPRPRICPRP	0.0562
RRIRARPPRLPRPRPRPHHEPRP	-0.119
RRIRFRPPRLPRPRPRPCFEPRP	-0.0728
RRIRTRPPRLPRPRPRPIYQPRP	-0.364
RRIRQRPPRLPRPRPRPQAQPRP	0.0471

Sequence	shrunken log2 fold change
RRIRARPPRLPRPRPRPHEGPRP	0.148
RRIRSRPPRLPRPRPRPQFMPRP	-0.274
RRIRSRPPRLPRPRPRPHQCPRP	-0.325
RRIRQRPPRLPRPRPRPPWSPRP	0.223
RRIRQRPPRLPRPRPRPGRPPRP	0.121
RRIRPRPPRLPRPRPRPTQPPRP	0.402
RRIRRRPPRLPRPRPRPTVLPRP	-0.227
RRIRCRPPRLPRPRPRPSFTPRP	-0.668
RRIRPRPPRLPRPRPRPPVYPRP	0.162
RRIRCRPPRLPRPRPRPYLFPRP	-1.19
RRIRHRPPRLPRPRPRPLMLPRP	-0.0972
RRIRERPPRLPRPRPRPLNRPRP	0.0599
RRIRNRPPRLPRPRPRPSFGPRP	0.00557
RRIRHRPPRLPRPRPRPGSVPRP	-0.31
RRIRLRPPRLPRPRPRPEWTPRP	-0.019
RRIRLRPPRLPRPRPRPPVLPRP	0.0296
RRIRTRPPRLPRPRPRPNMTPRP	-0.0848
RRIRPRPPRLPRPRPRPLPRPRP	0.443
RRIRSRPPRLPRPRPRPPGMPRP	-0.0105
RRIRQRPPRLPRPRPRPSFCPRP	0.462
RRIRHRPPRLPRPRPRPIYIPRP	-0.156
RRIRKRPPRLPRPRPRPDMCPRP	0.217
RRIRFRPPRLPRPRPRPYWSPRP	-0.428
RRIRMRPPRLPRPRPRPTCYPRP	0.0375
RRIRARPPRLPRPRPRPAWNPRP	-0.132

Sequence	shrunken log2 fold change
RRIRSRPPRLPRPRPRPAQKPRP	0.33
RRIRTRPPRLPRPRPRPDKGPRP	0.0109
RRIRGRPPRLPRPRPRPIVAPRP	0.727
RRIRWRPPRLPRPRPRPSRPPRP	0.402
RRIRKRPPRLPRPRPRPSNVPRP	-0.343
RRIRKRPPRLPRPRPRPKSAPRP	0.656
RRIRDRPPRLPRPRPRPISTPRP	-0.146
RRIRIRPPRLPRPRPRPPMHPRP	-0.0688
RRIRSRPPRLPRPRPRPKICPRP	-0.0675
RRIRKRPPRLPRPRPRPFEVPRP	-0.0185
RRIRDRPPRLPRPRPRPANGPRP	-0.0137
RRIRWRPPRLPRPRPRPPAGPRP	0.83
RRIRARPPRLPRPRPRPQAEPRP	0.892
RRIRTRPPRLPRPRPRPKEQPRP	0.0592
RRIRLRPPRLPRPRPRPRVEPRP	0.174
RRIRDRPPRLPRPRPRPDCLPRP	0.779
RRIRRRPPRLPRPRPRPRHKPRP	1.89
RRIRARPPRLPRPRPRPVDVPRP	-0.113
RRIRKRPPRLPRPRPRPESRPRP	0.625
RRIRKRPPRLPRPRPRPDIGPRP	-0.0485
RRIRTRPPRLPRPRPRPWKQPRP	0.0162
RRIRRRPPRLPRPRPRPHFGPRP	0.111
RRIRLRPPRLPRPRPRPAYQPRP	-0.142
RRIRLRPPRLPRPRPRPNMIPRP	-0.571
RRIRCRPPRLPRPRPRPQETPRP	0.00739

Sequence	shrunken log2 fold change
RRIRLRPPRLPRPRPRPRKFPRP	-0.0381
RRIRLRPPRLPRPRPRPRNGPRP	-0.0949
RRIRMRPPRLPRPRPRPHDRPRP	0.0623
RRIRSRPPRLPRPRPRPKLGPRP	0.281
RRIRSRPPRLPRPRPRPEDQPRP	0.106
RRIRGRPPRLPRPRPRPWCRPRP	0.195
RRIRNRPPRLPRPRPRPEWSPRP	0.406
RRIRWRPPRLPRPRPRPGLLPRP	0.403
RRIRFRPPRLPRPRPRPWHHPRP	-0.325
RRIRIRPPRLPRPRPRPCEYPRP	-0.115
RRIRDRPPRLPRPRPRPCAAPRP	0.704
RRIRDRPPRLPRPRPRPMKSPRP	0.0815
RRIRGRPPRLPRPRPRPELVPRP	1.58
RRIRDRPPRLPRPRPRPTDCPRP	0.00372
RRIRMRPPRLPRPRPRPADSPRP	0.264
RRIRYRPPRLPRPRPRPVAPPRP	-0.0629
RRIRSRPPRLPRPRPRPRKGPRP	0.208
RRIRMRPPRLPRPRPRPWEHPRP	0.0244
RRIRPRPPRLPRPRPRPRNYPRP	0.000451
RRIRWRPPRLPRPRPRPEDFPRP	0.0629
RRIRERPPRLPRPRPRPPVAPRP	0.658
RRIRYRPPRLPRPRPRPGHHPRP	-0.132
RRIRTRPPRLPRPRPRPHYIPRP	-0.105
RRIRGRPPRLPRPRPRPRNHPRP	0.563
RRIRERPPRLPRPRPRPKMFPRP	-0.000277
